B1: RAD51 C319S labelled with Alexa Fluor 647 C2 maleimide (natural protein, human, UniProt Q06609 1-339, looked up)
chain: MAMQMQLEANADTSVEEESFGPQPISRLEQCGINANDVKKLEEAGFHTVEAVAYAPKKELINIKGISEAKADKILAEAAKLVPMGFTTATEFHQRRSEIIQITTGSKELDKLLQGGIETGSITEMFGEFRTGKTQICHTLAVTCQLPIDRGGGEGKAMYIDTEGTFRPERLLAVAERYGLSGSDVLDNVAYARAFNTDHQTQLLYQASAMMVESRYALLIVDSATALYRTDYSGRGELSARQMHLARFLRMLLRLADEFGVAVVITNQVVAQVDGAAMFAADPKKPIGGNIIAHASTTRLYLRKGRGETRICKIYDSPSLPEAEAMFAINADGVGDAKD
modifications: Alexa Fluor 647 C2 maleimide (labelled residue not stated; protein to dye ratio 0.9-1.0)
notes: RAD51 recombinase, human, C319S variant; also called RAD51(A647); RAD-51(A647); source: E. coli BLR(DE3)pLysS (pET11c-RAD51 C319S), purified (ammonium sulphate, Q Sepharose, Heparin, Mono Q), then labelled

Data set [1] concerns the target BRCA2-eGFP;RAD51(A647) (Homo sapiens;Homo sapiens) (UniProt P51587). Description: single-molecule optical tweezers/confocal. The note with it: EMSA: 4 nM Cy5-DNA, 20 mM HEPES pH 7.5, 1 mM MgCl2, 1 mM TCEP, 100 mM KCl, 24 C, 5 min, single-molecule (Fig 1): 100 mM NaCl, 2 mM MgCl2, 1 mM CaCl2, 2 mM ATP …. (In general: A gel shift assay detects complexes by their altered migration in electrophoresis.)

The subject of data set [2] is RAD51(A647) (Homo sapiens). Description: single-molecule optical tweezers/confocal. The note with it: biotinylated hairpin end caps, EMSA: 4 nM Cy5-DNA, 20 mM HEPES pH 7.5, 1 mM MgCl2, 1 mM TCEP, 100 mM KCl, 24 C, 5 min, single-molecule (Fig 1): 100 mM NaCl, 2 mM MgCl2, 1 mM CaCl2, 2 mM ATP ….
The target in data set [3] is T1, BRCA2-N (residues 1-2142)-eGFP (human, UniProt P51587 1-2142).
T1 construct: BRCA2, human, residues 1-2142 (N-DBD and BRC repeats 1-8; lacks C-DBD, TR2 and exC-DBR); also called N-DBD-BRC1-8 truncated protein; source: High Five insect cells, baculovirus (pFBDM-BRCA2-N, MultiBac), purified (StrepTrap, Heparin); not shown: eGFP, C-terminal, kept
Description: single-molecule confocal fluorescence imaging with dual optical trapping (C-trap); BRCA2-eGFP (full length or truncation) and 20 nM RAD51(A647) moving together on lambda dsDNA held at 10 pN; 50 mM Tris-HCl pH 7.5, 50 mM NaCl or as indicated (25-150 mM), 2 mM MgCl2, 2 mM ATP, 0.2 mg/ml BSA. Particulars: both partners purified.

Data set [4] addresses T2, BRCA2-C2 (residues 966-3418)-eGFP (human, UniProt P51587 966-3418).
T2 construct: BRCA2, human, residues 966-3418 (BRC repeats 1-8, C-DBD, TR2, full exC-DBR; lacks N-DBD); source: High Five insect cells, baculovirus (pFBDM-BRCA2-C2, MultiBac), purified (StrepTrap, Heparin); not shown: eGFP, C-terminal, kept
The data set is described as above. Particulars: both partners purified.

Data set [5] has as its target T3, full-length human BRCA2-eGFP (human, UniProt P51587 1-3418).
T3 construct: breast cancer susceptibility protein 2 (BRCA2), human, full length, 3,418 amino acids; Sf9 codon-optimised gene; Order on the chain: BRCA2, (alanine)8 linker, monomeric eGFP A207K (so in the source), Flag3; Eluted from FLAG resin with Flag3 peptide; no tag cleavage is described; also called BRCA2 fl; fl BRCA2; source: Sf9 insect cells, baculovirus (pFB-BRCA2-eGFP), purified (FLAG M2 agarose, SP …)
Description: single-molecule confocal fluorescence imaging with dual optical trapping (C-trap); 5 nM BRCA2-eGFP and 25 nM RAD51(A647) together in solution; order of their arrival on gapped lambda DNA held between beads; 50 mM Tris-HCl pH 7.5, 100 mM NaCl, 2 mM MgCl2, 1 mM CaCl2, 2 mM ATP, 0.2 mg/ml BSA; with or without 1.25 nM RPA. Particulars: both partners purified.

Data set [6] concerns the target BRCA2-eGFP (Homo sapiens, UniProt P51587 1-3418). Description: EMSA; retains high ssDNA affinity; EMSA: 4 nM Cy5-DNA, 20 mM HEPES pH 7.5, 1 mM MgCl2, 1 mM TCEP, 100 mM KCl, 24 C, 5 min; single-molecule (Fig 1): 100 mM NaCl, 2 mM MgCl2, 1 mM CaCl2, 2 mM ATP. Particulars: protein: recombinant; tags: C-terminal Ala8 linker, eGFP(A207K), Flag3; label: 5'-Cy5 on strand 1; 42 bp duplex, 3' overhang on strand 1.

The target in data set [7] is B1. Description: single-molecule confocal fluorescence imaging with dual optical trapping (C-trap); BRCA2-eGFP (full length or truncation) and 20 nM RAD51(A647) moving together on lambda dsDNA held at 10 pN; 50 mM Tris-HCl pH 7.5, 50 mM NaCl or as indicated (25-150 mM), 2 mM MgCl2, 2 mM ATP, 0.2 mg/ml BSA. Particulars: both partners purified.

BRCA2-eGFP;RAD51(A647) (Homo sapiens;Homo sapiens), sequence (P51587 whole entry, looked up): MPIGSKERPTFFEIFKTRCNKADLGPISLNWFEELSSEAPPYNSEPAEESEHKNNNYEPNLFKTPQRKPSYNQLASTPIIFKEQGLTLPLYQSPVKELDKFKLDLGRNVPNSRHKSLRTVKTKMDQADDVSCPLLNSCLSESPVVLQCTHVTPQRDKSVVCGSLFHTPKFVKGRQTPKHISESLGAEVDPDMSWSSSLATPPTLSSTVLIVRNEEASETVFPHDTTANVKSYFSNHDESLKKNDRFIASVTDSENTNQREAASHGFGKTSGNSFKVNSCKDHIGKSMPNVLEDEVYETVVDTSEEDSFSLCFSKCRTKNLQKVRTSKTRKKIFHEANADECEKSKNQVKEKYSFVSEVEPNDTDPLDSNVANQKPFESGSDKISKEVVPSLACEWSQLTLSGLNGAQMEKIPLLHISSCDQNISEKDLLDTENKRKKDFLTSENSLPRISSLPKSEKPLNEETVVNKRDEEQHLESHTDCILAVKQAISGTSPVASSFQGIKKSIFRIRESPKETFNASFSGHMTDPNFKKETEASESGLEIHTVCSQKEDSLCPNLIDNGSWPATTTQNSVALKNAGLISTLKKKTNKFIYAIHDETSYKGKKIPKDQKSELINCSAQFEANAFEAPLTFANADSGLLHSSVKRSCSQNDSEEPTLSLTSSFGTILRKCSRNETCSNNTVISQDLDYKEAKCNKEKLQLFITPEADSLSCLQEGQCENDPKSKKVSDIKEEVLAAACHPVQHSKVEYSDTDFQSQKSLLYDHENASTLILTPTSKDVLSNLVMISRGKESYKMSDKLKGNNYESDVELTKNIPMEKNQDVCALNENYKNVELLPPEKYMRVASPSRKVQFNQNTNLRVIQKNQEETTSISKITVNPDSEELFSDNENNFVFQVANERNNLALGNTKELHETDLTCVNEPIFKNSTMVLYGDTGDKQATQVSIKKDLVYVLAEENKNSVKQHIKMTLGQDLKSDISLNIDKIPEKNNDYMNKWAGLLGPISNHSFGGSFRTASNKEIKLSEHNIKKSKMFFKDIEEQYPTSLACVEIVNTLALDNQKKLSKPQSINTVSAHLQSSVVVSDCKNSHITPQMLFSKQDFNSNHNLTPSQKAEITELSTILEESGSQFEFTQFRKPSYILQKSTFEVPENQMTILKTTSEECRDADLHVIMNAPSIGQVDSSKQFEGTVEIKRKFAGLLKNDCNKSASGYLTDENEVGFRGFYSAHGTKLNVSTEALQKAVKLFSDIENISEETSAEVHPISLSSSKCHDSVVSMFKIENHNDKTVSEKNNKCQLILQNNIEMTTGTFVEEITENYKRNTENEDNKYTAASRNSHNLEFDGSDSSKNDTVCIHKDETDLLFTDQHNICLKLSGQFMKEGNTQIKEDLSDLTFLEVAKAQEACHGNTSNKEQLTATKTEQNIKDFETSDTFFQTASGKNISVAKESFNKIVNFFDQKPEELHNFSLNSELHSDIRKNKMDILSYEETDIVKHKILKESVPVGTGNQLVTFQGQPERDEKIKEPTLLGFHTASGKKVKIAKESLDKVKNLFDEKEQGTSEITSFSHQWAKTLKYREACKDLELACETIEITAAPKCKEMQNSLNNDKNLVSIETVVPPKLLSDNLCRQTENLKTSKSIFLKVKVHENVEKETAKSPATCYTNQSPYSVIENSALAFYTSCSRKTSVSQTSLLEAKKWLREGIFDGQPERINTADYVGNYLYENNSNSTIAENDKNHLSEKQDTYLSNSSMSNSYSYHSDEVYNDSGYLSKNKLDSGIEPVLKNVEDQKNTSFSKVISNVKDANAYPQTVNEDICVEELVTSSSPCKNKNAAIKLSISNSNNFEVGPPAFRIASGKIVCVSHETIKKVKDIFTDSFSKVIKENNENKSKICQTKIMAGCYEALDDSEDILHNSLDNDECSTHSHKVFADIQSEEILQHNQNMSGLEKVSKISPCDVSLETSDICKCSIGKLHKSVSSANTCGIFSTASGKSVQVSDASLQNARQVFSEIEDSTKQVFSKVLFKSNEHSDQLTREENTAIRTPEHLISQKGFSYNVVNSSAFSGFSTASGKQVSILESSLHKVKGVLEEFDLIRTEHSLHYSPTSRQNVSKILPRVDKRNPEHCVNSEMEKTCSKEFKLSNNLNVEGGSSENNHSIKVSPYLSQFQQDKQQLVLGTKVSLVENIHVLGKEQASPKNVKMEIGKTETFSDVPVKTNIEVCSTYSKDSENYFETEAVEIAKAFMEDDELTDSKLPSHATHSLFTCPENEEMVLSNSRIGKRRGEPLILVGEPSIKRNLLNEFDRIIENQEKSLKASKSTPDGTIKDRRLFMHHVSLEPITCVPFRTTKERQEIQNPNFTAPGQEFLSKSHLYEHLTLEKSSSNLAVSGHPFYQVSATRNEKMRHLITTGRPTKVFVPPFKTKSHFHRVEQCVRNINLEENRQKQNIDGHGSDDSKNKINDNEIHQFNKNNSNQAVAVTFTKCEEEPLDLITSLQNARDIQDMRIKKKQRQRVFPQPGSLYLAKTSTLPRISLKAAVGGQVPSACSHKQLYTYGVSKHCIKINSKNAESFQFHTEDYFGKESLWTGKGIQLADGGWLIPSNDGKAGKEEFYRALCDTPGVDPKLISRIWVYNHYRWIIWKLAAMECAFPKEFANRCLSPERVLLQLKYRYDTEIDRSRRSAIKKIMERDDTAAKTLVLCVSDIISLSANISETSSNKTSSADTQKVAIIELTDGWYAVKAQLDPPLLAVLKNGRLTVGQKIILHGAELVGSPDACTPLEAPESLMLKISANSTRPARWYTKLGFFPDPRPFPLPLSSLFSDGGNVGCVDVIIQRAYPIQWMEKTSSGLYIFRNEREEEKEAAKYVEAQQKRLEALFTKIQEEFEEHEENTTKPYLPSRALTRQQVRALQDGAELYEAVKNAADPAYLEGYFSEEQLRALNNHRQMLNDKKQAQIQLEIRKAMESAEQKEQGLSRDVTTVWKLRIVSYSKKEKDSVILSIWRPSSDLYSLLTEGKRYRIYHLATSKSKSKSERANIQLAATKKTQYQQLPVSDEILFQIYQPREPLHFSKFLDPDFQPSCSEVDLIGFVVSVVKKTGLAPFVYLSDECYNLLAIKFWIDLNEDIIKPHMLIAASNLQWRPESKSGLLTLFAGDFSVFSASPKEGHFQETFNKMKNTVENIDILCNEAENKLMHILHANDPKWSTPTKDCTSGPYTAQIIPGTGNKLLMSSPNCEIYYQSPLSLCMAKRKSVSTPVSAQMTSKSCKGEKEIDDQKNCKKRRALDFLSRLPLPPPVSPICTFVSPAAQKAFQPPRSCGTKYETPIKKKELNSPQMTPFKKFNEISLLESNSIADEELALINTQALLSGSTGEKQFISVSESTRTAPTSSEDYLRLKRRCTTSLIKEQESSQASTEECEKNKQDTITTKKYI

For “lambda dsDNA (including dsDNA arms of gDNA)”, the binding signal (um2 s-1 (1D diffusion coefficient)) in data set [1] (sliding on dsDNA, biotinylated ends) worked out at 0.04.
gapped lambda DNA (gDNA), ssDNA gap registered a binding signal (fold nucleation rate vs RAD51 alone) in data set [1] (5 nM BRCA2-eGFP, 25 nM RAD51, 2 mM ATP, no RPA, biotinylated hairpin end caps) of 2.7. In data set [1] (with BRCA2-eGFP, biotinylated hairpin end caps), the binding signal (s (RAD51 cluster dwell time)) is 102. Besides, the binding signal (nuclei knt-1 min-1 (nucleation rate)) amounted to 0.003 in data set [2] (1.25 nM RPA, 2 mM ATP) and 0.277 in data set [2] (25 nM RAD51, 2 mM ATP, no RPA). In data set [2] (no BRCA2), the binding signal (s (cluster dwell time)) was determined as 27.2.
B1: the binding result in data set [3], in data set [4] and in data set [5] was “binds” throughout.

B2: 167mer 3' tailed DNA (mixed)
DNA 1: CTGCTTTATCAAGATAATTTTTCGACTCATCAGAAATATCCGTTTCCTATATTTATTCCTATTATGTTTTATTCATTTACTTATTCTTTATGTTCATTTTTTATATCCTTTACTTTATTTTCTCTGTTTATTCATTTACTTATTTTGTATTATCCTTATCTTATTTA
DNA 2: CGGATATTTCTGATGAGTCGAAAAATTATCTTGATAAAGCAG
As to B2, the binding result in data set [6] was “binds”.

B3: BRCA2-C (residues 966-1596, 2477-3194, 3265-3330)-eGFP (domain or fragment, human, UniProt P51587 966-1596, looked up)
chain: TLGQDLKSDISLNIDKIPEKNNDYMNKWAGLLGPISNHSFGGSFRTASNKEIKLSEHNIKKSKMFFKDIEEQYPTSLACVEIVNTLALDNQKKLSKPQSINTVSAHLQSSVVVSDCKNSHITPQMLFSKQDFNSNHNLTPSQKAEITELSTILEESGSQFEFTQFRKPSYILQKSTFEVPENQMTILKTTSEECRDADLHVIMNAPSIGQVDSSKQFEGTVEIKRKFAGLLKNDCNKSASGYLTDENEVGFRGFYSAHGTKLNVSTEALQKAVKLFSDIENISEETSAEVHPISLSSSKCHDSVVSMFKIENHNDKTVSEKNNKCQLILQNNIEMTTGTFVEEITENYKRNTENEDNKYTAASRNSHNLEFDGSDSSKNDTVCIHKDETDLLFTDQHNICLKLSGQFMKEGNTQIKEDLSDLTFLEVAKAQEACHGNTSNKEQLTATKTEQNIKDFETSDTFFQTASGKNISVAKESFNKIVNFFDQKPEELHNFSLNSELHSDIRKNKMDILSYEETDIVKHKILKESVPVGTGNQLVTFQGQPERDEKIKEPTLLGFHTASGKKVKIAKESLDKVKNLFDEKEQGTSEITSFSHQWAKTLKYREACKDLELACETIEITAAPKCKEMQNPLDLITSLQNARDIQDMRIKKKQRQRVFPQPGSLYLAKTSTLPRISLKAAVGGQVPSACSHKQLYTYGVSKHCIKINSKNAESFQFHTEDYFGKESLWTGKGIQLADGGWLIPSNDGKAGKEEFYRALCDTPGVDPKLISRIWVYNHYRWIIWKLAAMECAFPKEFANRCLSPERVLLQLKYRYDTEIDRSRRSAIKKIMERDDTAAKTLVLCVSDIISLSANISETSSNKTSSADTQKVAIIELTDGWYAVKAQLDPPLLAVLKNGRLTVGQKIILHGAELVGSPDACTPLEAPESLMLKISANSTRPARWYTKLGFFPDPRPFPLPLSSLFSDGGNVGCVDVIIQRAYPIQWMEKTSSGLYIFRNEREEEKEAAKYVEAQQKRLEALFTKIQEEFEEHEENTTKPYLPSRALTRQQVRALQDGAELYEAVKNAADPAYLEGYFSEEQLRALNNHRQMLNDKKQAQIQLEIRKAMESAEQKEQGLSRDVTTVWKLRIVSYSKKEKDSVILSIWRPSSDLYSLLTEGKRYRIYHLATSKSKSKSERANIQLAATKKTQYQQLPVSDEILFQIYQPREPLHFSKFLDPDFQPSCSEVDLIGFVVSVVKKTGLAPFVYLSDECYNLLAIKFWIDLNEDIIKPHMLIAASNLQWRPESKSGLLTLFAGDFSVFSASPKEGHFQETFNKMKNTVENIDILCNEAENKLMHILHANDPKWSTPCKKRRALDFLSRLPLPPPVSPICTFVSPAAQKAFQPPRSCGTKYETPIKKKELNSPQMTPFKKFNE
notes: BRCA2, human, residues 966-1596 (BRC repeats 1-4); BRCA2, human, residues 2477-3194 (C-DBD); BRCA2, human, residues 3265-3330 (TR2); No linkers between the three stretches are stated; source: High Five insect cells, baculovirus (pFBDM-BRCA2-C, MultiBac), purified (StrepTrap, Heparin); not shown: eGFP, C-terminal, kept
As to B3, the binding result in data set [7] is “binds”.
